Target: T1, stFlhD4C2 (Salmonella typhimurium, UniProt P0A2R2;O52222)
T1 sequence 1: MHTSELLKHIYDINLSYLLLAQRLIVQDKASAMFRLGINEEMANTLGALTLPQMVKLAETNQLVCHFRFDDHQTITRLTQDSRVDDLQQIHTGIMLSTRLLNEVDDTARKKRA
T1 sequence 2: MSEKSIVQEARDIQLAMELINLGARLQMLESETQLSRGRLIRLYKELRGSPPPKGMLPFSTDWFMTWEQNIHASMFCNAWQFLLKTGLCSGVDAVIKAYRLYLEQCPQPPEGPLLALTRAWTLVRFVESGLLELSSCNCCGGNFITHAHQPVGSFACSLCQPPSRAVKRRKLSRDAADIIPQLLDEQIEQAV
Assay: native gel or EMSA

B1: YdiV (natural protein)
chain: MKIFLENLYHSDCYFLPIRDNQQVLVGVELITHFSSEDGTVRIPTSRVIAQLTEEQHWQLFSEQLELLKSCQHFFIQHKLFAWLNLTPQVATLLLERDNYAGELLKYPFIELLINENYPHLNEGKDNRGLLSLSQVYPLVLGNLGAGNSTMKAVFDGLFTRVMLDKSFIQQQITHRSFEPFIRAIQAQISPCCNCIIAGGIDTAEILAQITPFDFHALQGCLWPAVPINQITTLVQR
binding result: binds
